Measured values reported in the DeepSol protein solubility set.

Test: soluble on expression in E. coli; label from the status in PepcDB or PDB records

Row | Sequence | soluble on expression in E. coli
1 | MSELIRVPDIGNGEGEVIELLVKPGDKVEADQSLLTLESDKASMEIPSPKAGVVKSIKAKVGDTLKEGDEILELEVEGGEQPAEAKAEAAPAQPEAPKAEAPAPAPSESKPAAPAAASVQDIKVPDIGSAGKANVIEVMVKAGDTVEADQSLITLESDKASMEIPSPASGVVESVSIKVGDEVGTGDLILKLKVEGAA | not soluble
2 | MGSDKIHHHHHHMKLRCAIVDDEPLALSLLESYVNKTPFLELAGKYSSAVQAMKELPGNQIDLLFLDIQMPELNGLEFSKMVAPRTRIVFTTAFGQYAIDGYRVNALDYLLKPISYVDFLQAANKALQWFELVQKPEEVDSIFVKSDYKLVQVELKKILYIEGLKDYIKIYTEDAPKPILSLMSMKSMEELLPPARFMRVHRSFIVQKDKIRIIDRGRIVFDKTYIPVSDSYKQTFQTFLDERS | not soluble
3 | MGSDKIHHHHHHMTSDVLVIAPFRRPTFRTAISHLYPVTEPWDSPPLITCGAIQEAGLEVDYVALQNIFNGYDPERDGRDLNEILGVLHPKVVIFSSDHFIPSRSTASIYGISLVSKIFKSRERPPLIGVCGRLATVAAQRLFAEVPEVDFAVIGESDGVIGEVVADLLAADMEETSRRHGYVHTRTAPARDIAYMGDVNDVALPAFALALPSIAQYRSRFGLEENPLPFSLRTSFGCKFKCRFCAGVPHWLDYRKKSPDRVQAELDAFLNQLGDQARISFLEDEIFTRDPEHVAAITALLKERNIYLDGLYTHSTLLTPEIAADLCTVADRVFTGLDNADDQILRKMGKGQLLDTVLDAVEKAQAASLKVHLEWIIGTPEETLDTLVTSLSTIFNLLSTHAVESINTYVYCPHPGTDYTVNAKKYRMRVLDTFDGIQESGGYPAFDTANLTRNQIYTAYLMSQLVIAEVTAARQHSSIPRAVVPASRSELLRLFGMIGEGQVAFDFDEAPVGRVSYPEGTSRA | not soluble
4 | MAHHHHHHMTTVLNRRFDVLCHSGTCPSYLIDVLSLLVAHANDTELFKTELRKGDGGEFGAAATGAGSAHATSSTGPASRTDRAVGEARERQAADRRTQLMYKQVEDPEVLDDALRASHETVLIAAERSLQTYTEDLKHINDIAMATSAKQLRAMRVETQQQMEAFRDRVCGSVVAQTKEELEVMRSELAASVRADVSDMVRQLHQVSFSTQQQLQQLTSSYTDFVAQAHDALTLAPLADAYEAVKTVEYMQEQLKCIEAAATTRSDVETLEERLKDLESIVTTLGSVAKTPDVGAAAAAREGFSVNVPPPLSLSQQKPVLSNRSASHRSQTPKCTSPLPLHLHVSRSASAKGRPSSPPPASPGPPAQRTLAERLGVAVEAAEDGVVLAEVLPGSAAAAHRLGVGHIISHVGRTAVKTPAAFEEALRGIEGQAVKITAYDPFNGRVRVLTAQPL | not soluble
5 | MGRVVLWLLLLALLPAYAQETYDWIVVLGAAQYGGRPSPALERRLQAALHLFREGRGRRIAVAGGKAPEDLYSEGEVGCRYLAARGVPEEALFCETRSRSTYENLLFLKPHLEGRLLLVTDAPHLPRALFLARLLGLEAEGYPVPGNYPLGYWAKEALYRLWLYLGLRPQGVFSSRFNASRAAALEHHHHHH | not soluble
6 | MIYFQTKDDAFFTLASEQEADKPHREHLLDLTLGKGRKRKSSEVLRRGRLAACGLSFVVKNTLGELVGSVRLWHVQFNKGHNEIQHALLLGPLAVAAECSGIGIGSALMRHAIATAKKMGYGAIFLVGDCAFYQRFGFSSSLTKNLAMPGPYEKHRFQALELIPHYLTSCHGILTPSGELEDWNSFQHHKVA | not soluble
7 | SEELDRQKIGGFWREVGVASDQSLVLTAPKRVEGLFLTLSGSNLTVKVAYNSSGSCEIEKIVGSEIDSTGKFAFPGKCSCPVMAGGTRLCTQLGLIVPHAVPCTVPHAVPCTVLCAVPCTVPHAVP | soluble
8 | MCVSSAVCVLSRLSLERFSNFSANFVDNFLLVARFARGETLKNGIVLEISKICPKLYISPVPKLFDCSTDNLLFIYILFASKVRMKEMSTPTGLPALNGDVLSAINDMIGRVIIINTTDKKRYSGVLGAVSQDFDFGMQCVVEITKENENNLLRTESECRDKMVFHYSDIVDFAYVTQEIKKQHAVSKFVTDRQYHGDTPIEGEELQEWNGGEEDGLGGSIEDDVVVAGGQTAARRSNNHNNGTGWSVNDMFAANEKMNVVSTFKEDLTQYTTVEVVGTDEDRARAERLAREIESNSSSKFMANLENDDDERDLDKITRQEDFENGNGRKRNNNSFNQQQQQRRNPNIAPNGQPVNRRAEGLRGDRRNSGSSSANNSRYGAPAAAQQNYSQNQQQQQGQKGYRRQNEENDWQMAKGKGQNQGHDHSFRQQQKQMLDPRPNNNVKPADDKAQSATTATAAAGGSRVTDLKNWGNEFSIATAPKDQAPAVPAGNSGSAWNRGPPSSLVAKGSSNESTPPPTTNGEEAETKKEEAPSTSVDVAAAPVQNVQNDAEKHQEDDNVSVTSENDSVITSKSSSFKFNINAPEFKPRVAPATPTATTPVQNEYHPQQQPHPAMMAPQQGPPAPGMGMVPPHMGGPQNQGQPPMMMWQQTGQQQQGGGGYPQNHQFPIQHVPMQGVPGQMYGPGAATPVTVAQQPNQQHQVPTSAAGGQNHQLRDGEYREKQPLYMPYGPPQMVPVTSQQFYHSQYQGQMQQAAPYQMKMMPQQAPQGAYQQRYQQPQVYMMPPQGQQQQPRYQGPPPPQQQQQQQPQQQQFSGEQSRPQSHPNSQPTTPGPRGELPKMSGAPQNGNMQAESSSNASHSGSTSSQSGQRSGSPPGAVPPPPPPQQQHQQQQHPPHHAPPHVGAPPPQMMQQQQQHIQQYMQVFYPMIMPQQMPMQQNQHPQQSLMGERSDQGFPTSGYFDYRTMPNYQQQQQQQQQQMHRQNSLPQQFQGNQGVNPSGQQSGPPPPPPPSQQGTPRDQQHSQSPP | not soluble
9 | MGVFNYEIETTSVIPAARLFKAFILDGDNLVPKVAPQAISSVENIEGNGGPGTIKKINFPEGFPFKYVKDRVDEVDHTNFKYNYSVIEGGPVGDTLEKISNEIKIVATPDGGCVLKISNKYHTKGNHEVKAEQVKASKEMGETLLRAVESYLLAHSDAYN | soluble
10 | MGSDKIHHHHHHMASESWMKTQAPDPTNLPAEINPEVPSIARVYDYFLGGKDNFPADRAAAAAVEKVFPQGKQLGRESRMLLRRATRELVRAGVRQFLDIGSGLPTAGNVHEIAHEIDPEVRVVYIDNDPVVLAHGRALLADEVTTTVVQADLRHPDGIFDNPEVRALLDFDQPVAVFLASILHHFDDSDDPWALSRKIRDRISSGSYMLITHFYDSGDPVCREVEQALLEGGLGSGWFRTKEQIERFFEGMDVLEPGVVAANEWRPDAETPTDSTTHHLLAGGLARKP | not soluble
11 | MKLYIGNKNYSSWSLRAWLMVKKSGIKFDEILLQLDTDSFYQQLQSISPTLKVPTLVDGDITVWDSLSICEYINDSYLSGTAWPQDPKQKAKARSLACEMHSGFNALRNALPMNIRARRYVELSPAVQQDIARVDSIWSQQMAEFAPCQTQGTWLFGQWSIADMMFAPVVMRFFTYEIEVSQASRAYMEYIMSQPQMQAWITAAKAETEIVEADEAGVDR | not soluble
12 | MDLFCLGRDLQTRPQSKEALSAIILAPMEWDLSDLYSGPQDPRILQDLEAALALAQGLDPQGLLDPKGAQDLLERYEKALELAYKPLNYASLYFATRTQDPEAKALLDRVRSRFTEVRNRLVPLEVALRKLPEEAFQRLLAHPGLADLGHFLKRQRAYAPHTLSEREEELLNLKALVGRSAWSQFYTEYTGRFRFRVGERELTEMEVRALRRDPDPEVRREAHRALYGKLLAEAPTLSAVFNAVYLDYLQDLRLRGYRHPLEPVALRDEVEVREIEALLEATKAHYPLVERYYRWKAGRLGREKTPSEDLLAPLGEKPKVPFAEARALVLEAFRRFSPELAEIAREFFEKRWIDVYPRPGKRGGAFCSGGLPSTHPYILLNHTDDLDSAHTLAHELGHGVHFYLARKQRLLNFGASTPLAETASVFAEILLDDLLLERLSGEEKTLLLAERVEDAINTLFRQVMYTFFEQRSLEARKEAALSPEAFHALWDEEQRRLYGEAVAWTELDRAAWAGIPHFVHYRFYTYSYALGYLVVLALYGKYREEGEAFVPKYLRILEAGESASPKEILAEAGVELGSEAFFRYGFGVLESWLKALP | soluble
13 | MSLHPEQIHNAINCLCLAATATVAGAMISMGCTTGQRSNSRNSRKSSRSNKSKRSQRSKRRSAQRKKSSSRRKKKLRKEKSRKSQRSKRKKRESERRKKERSKRIARSKKSIKRDRERDSDSSRIKKSGSKRNLEKSNRDDSKRKISKDKNSRRSSQEKSHKYSEPLFIPPVDYDDRDRSLKKKKSVRDNNEEGSRRSSSRDKSKDMKEKSQQSKKDSSRKSKKQQKSEKKKSAEQDNRSDPEDDREAEAPNWRRRRRAKEDQNVKARKTKKVKKNEEVPSKKSSKMSKRSKRSTDENLETAKSSRILKDSEPKSSRSSVTSQKIDSSRGMSKLRADALKRMEPKLLVSPNANSDRFQCNEKGCQKGQCSSEARYAQNVRRSASQKSLRAPKENKLKDGSAKTPKVSSTTTPPVDTMRTPTQEPRSIYIETGKSTYGEASKTSGNNARSVYLADPVSAPKAYSVTPQKSTKTPSERKSEKNLEKKASKKSIKSSRSGIQQREVTKTSSKHSSKHSKAPSSKKSSKKSSKKEQKSRALSNSSSKKSVGSHRNKSNR | not soluble
14 | MGHHHHHHSHKNVVHQLSVTLEDLYNGATRKLALQKNVICDKCEGRGGKKGAVECCPNCRGTGMQIRIHQIGPGMVQQIQSVCMECQGHGERISPKDRCKSCNGRKIVREKKILEVHIDKGMKDGQKITFHGEGDQEPGLEPGDIIIVLDQKDHAVFT | not soluble
15 | MGHHHHHHSHMWSSREIEDLGLTFAIAIDKGKETNTEKELKEEGGSYPKKDNITLTYQFVNEKAAGAGTSGGGGSGQGAQKAYINISETGDSLQQIGSEVALRRDREVFSPHLKVVVMSEDVLHTFPIDEMLDQFFRDNEIRLSCLVLSAKGEARDALQLKENGEIPAFRLIGLGENEHKVSRILPPMTLAKLIGKLHSGSSFLLQNVVAANGAVKYSGAAVINGKSKKMIGTLNEYETEGITWIRGEGKGGVVKSHDKKSQQTLAYDINKIKSRIQPIVKGKDISFHVDIESEGDLVENWNTKEALDTQFIDRLETTIENEVKKIVGQVLKKIQHDYKADVAGFDESFRLTYPHLWKRVKNNWDDTFSKADITYSVNVTITHFGTVKTQ | soluble
16 | MTNAALDDKTIVRDYFNSTGFDRWRRIYGDGQVNFVQKDIRVGHQQTVDSVVAWLVADGNLPGLLVCDAGCGVGSLSIPLAQAGALVYGSDISEKMVGEAQQKAQEVLAYGNQPTFMTQDLAQLGGKYDTVICLDVLIHYPTEEASAMISHLASLADRRLILSFAPKTLGLTVLKKIGGLFPGPSKTTRAYQHKEADIRKILGDNGFSIARTGMTSTRFYYSRILEAVRSLEHHHHHH | not soluble
17 | MKGRDVVLGLLMQKELSGYDIKIVFEDVFTHFFDGSFGMIYPTLRQLENEGKIKKEVVMQEGKPNKKMYFITDEGREEFYQYMQTPVEKDVLRSDFLMRMYFGNYSDDVTIKKWIKDEIERKEAYIADLRLKYEKWRVGITFVEEISLDVGIASYSAQVETLKKKLEELEAKENNKTEE | soluble
18 | MTYCLGVKLKDGLVAIADTRITSGTDTTTAKKLFVHESAHGSLFLMTSGLRSVRDKAITYFKEVLKDEHVVYNQLYEAVNAFGNQLRRVAEEDRKALYAAGFAFNLHTIVGGQLKNDEEPKMFLLYPEGNWIELTQTSPFMIIGNSGYGKPILNRTVKYESTLEEVLKAGFLSFDSTRVSANDVDFPLDVVVYYNNSFKMIEHRFEKKDMEIISTTWDNQLKQALDSVPEEWMNVVFDRKNVLLEHHHHHH | not soluble
